B1: FGFR1c^ecto (human FGFR1c ligand-binding domain, D2, D3 and D2-D3 linker) (receptor)
chain: DNTKPNRMPVAPYWTSPEKMEKKLHAVPAAKTVKFKCPSSGTPNPTLRWLKNGKEFKPDHRIGGYKVRYATWSIIMDSVVPSDKGNYTCIVENEYGSINHTYQLDVVERSPHRPILQAGLPANKTVALGSNVEFMCKVYSDPQPHIQWLKHIEVNGSKIGPDNLPYVQILKTAGVNTTDKEMEVLHLRNVSFEDAGEYTCLAGNSIGLSHHSAWLTVLEALEER

Assays:
[1] = target: T1, αKlotho^ecto/ΔRBA (soluble αKlotho ectodomain lacking L544 to T565 of the KL2 β1α1 loop) (human, UniProt Q9UEF7 34-981); experiment: SEC-MALS of a 1:1 mixture, UV280 absorbance and molecular weight against retention time [panel A]
T1 construct: the mature protein is E34 to S959; Expressed and purified like the wild type (pEF1α/myc-His A); also called α-Klotho^ecto/deltaRBA; αKlotho^ecto/ΔRBA mutant
T1 sequence: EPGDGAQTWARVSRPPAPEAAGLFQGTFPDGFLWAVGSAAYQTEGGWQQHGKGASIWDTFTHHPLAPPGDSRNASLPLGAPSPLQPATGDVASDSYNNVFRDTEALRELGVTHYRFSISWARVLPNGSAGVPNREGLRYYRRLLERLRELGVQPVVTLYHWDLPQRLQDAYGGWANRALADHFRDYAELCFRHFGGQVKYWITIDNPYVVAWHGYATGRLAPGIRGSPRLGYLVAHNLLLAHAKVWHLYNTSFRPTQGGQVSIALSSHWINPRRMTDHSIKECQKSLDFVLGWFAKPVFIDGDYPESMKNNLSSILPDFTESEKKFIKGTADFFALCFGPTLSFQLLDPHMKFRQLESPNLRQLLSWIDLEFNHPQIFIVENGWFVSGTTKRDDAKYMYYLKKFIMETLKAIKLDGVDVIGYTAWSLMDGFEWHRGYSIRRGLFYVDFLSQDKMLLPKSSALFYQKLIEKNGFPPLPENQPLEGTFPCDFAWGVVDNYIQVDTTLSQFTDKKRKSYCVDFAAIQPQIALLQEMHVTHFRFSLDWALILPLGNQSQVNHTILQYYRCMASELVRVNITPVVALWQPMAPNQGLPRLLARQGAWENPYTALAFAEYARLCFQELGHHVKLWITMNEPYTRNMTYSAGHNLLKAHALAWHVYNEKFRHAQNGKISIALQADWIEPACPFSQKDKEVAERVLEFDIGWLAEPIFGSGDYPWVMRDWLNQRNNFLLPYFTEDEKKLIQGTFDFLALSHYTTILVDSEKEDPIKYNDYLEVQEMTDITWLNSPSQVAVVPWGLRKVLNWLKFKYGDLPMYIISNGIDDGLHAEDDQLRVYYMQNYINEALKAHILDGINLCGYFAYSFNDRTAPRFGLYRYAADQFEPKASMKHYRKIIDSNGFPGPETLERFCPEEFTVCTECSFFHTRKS

[2] = target: T2, Soluble human α-Klotho ectodomain (αKlotho^ecto) (human, UniProt Q9UEF7 34-981); experiment: as above
T2 construct: also called wild-type αKlotho^ecto; soluble αKlotho
T2 sequence: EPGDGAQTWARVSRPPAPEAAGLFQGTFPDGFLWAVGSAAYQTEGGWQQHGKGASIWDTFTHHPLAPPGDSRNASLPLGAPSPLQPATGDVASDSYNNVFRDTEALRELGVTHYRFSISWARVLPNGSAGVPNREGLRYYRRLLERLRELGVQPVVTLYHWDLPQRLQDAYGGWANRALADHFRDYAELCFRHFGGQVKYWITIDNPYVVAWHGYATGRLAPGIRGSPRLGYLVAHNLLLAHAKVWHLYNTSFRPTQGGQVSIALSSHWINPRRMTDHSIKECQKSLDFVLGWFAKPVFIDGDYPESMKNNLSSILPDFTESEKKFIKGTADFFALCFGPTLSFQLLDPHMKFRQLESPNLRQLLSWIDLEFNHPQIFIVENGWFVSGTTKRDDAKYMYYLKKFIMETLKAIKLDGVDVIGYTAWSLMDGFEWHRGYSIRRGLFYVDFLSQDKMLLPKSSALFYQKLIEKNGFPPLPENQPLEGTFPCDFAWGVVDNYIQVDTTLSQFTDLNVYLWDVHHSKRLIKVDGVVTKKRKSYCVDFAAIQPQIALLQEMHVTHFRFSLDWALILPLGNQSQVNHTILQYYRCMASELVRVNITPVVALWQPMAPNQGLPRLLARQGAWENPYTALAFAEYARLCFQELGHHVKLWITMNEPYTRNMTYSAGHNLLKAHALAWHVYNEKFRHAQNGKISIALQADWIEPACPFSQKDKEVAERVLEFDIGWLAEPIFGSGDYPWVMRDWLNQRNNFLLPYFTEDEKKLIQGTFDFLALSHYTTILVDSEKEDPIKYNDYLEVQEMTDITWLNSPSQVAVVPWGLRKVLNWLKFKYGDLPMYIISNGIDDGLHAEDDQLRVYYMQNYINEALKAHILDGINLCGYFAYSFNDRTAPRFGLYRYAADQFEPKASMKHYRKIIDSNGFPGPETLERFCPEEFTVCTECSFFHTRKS

[3] = target: B1; experiment: SEC-MALS, 1:1:1 ternary complex with FGFR1c^ecto and αKlotho^ecto
Description: (§1) A Superdex 200 10/300 GL column (GE Healthcare, USA) was placed in-line between the HPLC pump (Waters 1525) and the HPLC UV (Waters 2998 Photodiode Array), laser light scattering, and refractive index detectors. Light scattering and refractive index detectors were calibrated following the manufacturer's guidelines. The refractive index increment (dn/dc) in which n is the refractive index and c is the concentration of the mixture of DDM and CHS in 20 mM Tris-HCl pH 8.0 buffer containing 300 mM NaCl, was determined offline using an Optilab T-rEX refractive index detector. Monomeric bovine serum albumin (#23210, Thermo Scientific, USA) was used as part of routine data quality control.
(§2) 60 ml or more of 25 mM HEPES pH 7.5 buffer containing 150 mM NaCl were passed through the system at a flow rate of 0.5 mL/min to equilibrate the Superdex 200 10/300 GL column and establish stable baselines for light scattering and refractive index detectors. Purified αKlotho^ecto, FGER1c^ecto (wild type or mutant), and FGF23 (wild type or mutant) proteins were mixed at a molar ratio of 1:1:1 and concentrated to 12.5 μM. 50 μl of protein samples with a molar equivalent of a heparin hexasaccharide (#H006, Iduron, Manchester, U.K.) were injected onto the gel filtration column, and the column eluent was continuously monitored for 280 nm absorbance, laser light scattering, and refractive index. […]

[4] = target: T2, Soluble human α-Klotho ectodomain …; experiment: SEC-MALS, 1:1:1 mixture with FGFR1c^ecto and αKlotho^ecto
Description: as §1, §2

| Binder | binding result [1] | binding result [2] | binding result [3] | binding result [4] |
| --- | --- | --- | --- | --- |
| B1 | no binding | binds | – | – |
| FGF23^ΔSRBS (FGF23^WT carrying M149A/N150A/P151A) (ligand) YPNASPLLGSSWGGLIHLYTATARNSYHLQIHKNGHVDGAPHQTIYSALMIRSEDAGFVVITGVMSRRYLCMDFRGNIFGSHYFDPENCRFQHQTLENGYDVYHSPQYHFLVSLGRAKRAFLPGAAAPPYSQFLSRRNEIPLIHFNTPIPRQHTQSAEDDSERDPLNVLKPRARMTPAPAS | – | – | binds | binds |

Reference: patent publication US20210054355A1 (NEW YORK UNIVERSITY, published 2021)
